Residue numbers refer to the chain shown, from its start.
B1: AHP29153 (antibody, V domains shown)
VH: QLQQVESGGGLVQPGGSLRLSCAASRNIGILSTMGWYRQAPGKQRELVATITRGGSTNYGEFVKGRFTISRDNAKNTVYLQMNSLKPEDTAVYYCNVDESWLGTQSYWGRGTTVTVSS
VL: QSVLTQPASVSGSPGQSITISCTGTSSDVGGYKYVSWYQQPPGKAPKLIIYEVTKRPSGVPDRFSGSKSGNTASLTVSGLQAEDEADYYCLSYAGSNNVFGTGTKLTVL
B2: AHP31548 (antibody, V domains shown)
VH: B1 VH with L2V, Q4L, V5M, E6Q
VL: QSALTQPPSASGSPGQSVTISCTGTSSDIGTYNFVSWYQQHPGKAPKLIIYEVSKRPSGVPDRFSGSKSGNTASLTVSGLQAEDEADYYCKSYPRVFGTGTKLTAL
B3: AHP32913 (antibody, V domains shown)
VH: B1 VH with L2V, Q4L, V5M, E6Q, T113Q
VL: QAVVTQEPSLTVSPGGTVTLTCGSSTGPVTSGHYPHWYQQKPGQAPKTLIFDTSHKHPWTPAQFSGSLLGGKAALTLSGAHPEDEAEYYCLLSYSGVRVFGGGTQLIIL
B4: AHP32982 (antibody, V domains shown)
VH: B1 VH with L2V, Q4L, E6Q, T112P, T113L
VL: DIVMTQSPSSVSASVGDRVTITCRASQGISSWLAWYQQKPGKAPKLLIYAASSLQSGVPSRFSGSGSGTDFTLTISSLQPEDFATYYCQQANSFPLTFGGGTKVEIK
B5: AHP33007 (antibody, V domains shown)
VH: B1 VH with L2V, Q4L, E6Q, T112P, T113L
VL: not shown
B6: AHP30826 (antibody, V domains shown)
VH: QVQLQQSGGGSVQAGGSLRLSCAASGTILSINAMGWYRQAPGKQRELVATITTGGNANYAHSVKGRFTISRDNAKNTVYLQMNNLKPEDTAVYYCNAEQVVVGFLQAYDVWGQGTTVTVSS
VL: DVVMTQSPLSLPVTLGQAASISCRSSQSLVHGDGNTYLNWIQQRPGQSPRRLIYKVSNRDSGVPDRFSGSGSGTDFTLKISRVEAEDVGVYYCMQGTHWPSTFGPGTKVDIK
B7: AHP32919 (antibody, V domains shown)
VH: QVQLQESGGGVVQPGGSLRLSCAASQSIGLLSTMGWYRQAAGKQRELVATITRGGSTNYGEFVKGRFTISRDNAKNTVYLQMNSLKPEDTAVYYCTADESWLGTQSYWGRGTRVTVSS
VL: QAGLTQPPSASGTPGQGVTISCSGSSSNIGSNSVNWYQQLPGTAPKLLMHSNNERSSGVPDRFSGSKSGSSASLAISGLQSEDAADYFCGAWDDSLNGYVFGTGTKLTVL
B8: AHP33029 (antibody, V domains shown)
VH: B7 VH with Q5V, E6D, V11L, P14S, S21T, R113L
VL: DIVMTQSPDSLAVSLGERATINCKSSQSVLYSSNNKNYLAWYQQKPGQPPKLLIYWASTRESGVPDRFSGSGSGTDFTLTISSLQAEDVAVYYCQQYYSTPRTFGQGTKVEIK

These binders were tested against T1, human Claudin 18.2 expressed on cells (HEK293/human Claudin 18.2; CHO-K1/human Claudin 18.2) (human, UniProt P56856-2 1-261) (assay: cell-based or functional assay).

| Binder | CDC on CHO-K1/human Claudin 18.2 cells: Top |
| --- | --- |
| B1 | 96.3% |
| B2 | 94% |
| B3 | 93% |
| B4 | 95.5% |
| B5 | 92.7% |
| B6 | 96% |
| B7 | 96.3% |
| B8 | 96.9% |

Target: T1, human Claudin 18.2 expressed on cells …
Assay: cell-based or functional assay
Remark: another data set of the same source

| Binder | ADCC reporter gene assay (CHO-K1/Claudin 18.2 target cells, GS-J2C/CD16A 158V effector cells): EC50 | ADCC reporter gene assay (CHO-K1/Claudin 18.2 target cells, GS-J2C/CD16A 158V effector cells): Top |
| --- | --- | --- |
| B1 | 0.805 nM | 283000 |
| B2 | 2.15 nM | 463000 |
| B3 | 8.12 nM | 486000 |
| B4 | 0.379 nM | 216000 |
| B5 | 1.84 nM | 295000 |
| B6 | 0.684 nM | 222000 |
| B7 | ~0.439 nM | 199000 |
| B8 | 3.73 nM | 358000 |

What follows are binders tested against T1, human Claudin 18.2 expressed on cells … (assay: flow cytometry on HEK293 cells expressing human Claudin 18.2).

| Binder | EC50 |
| --- | --- |
| B1 | 8.15 nM |
| B2 | 3.08 nM |
| B3 | 4.16 nM |
| B4 | 5.91 nM |
| B5 | 12.4 nM |
| B6 | 3.54 nM |
| B7 | 6.04 nM |
| B8 | 4.24 nM |

Each binder was assayed against T2, recombinant human Claudin 18.2 protein (GenScript, Z03504) (human, UniProt P56856-2 1-261, limits assumed) (assay: SPR Biacore 8K, antibody captured via Fc, human Claudin 18.2 protein as analyte).
T2 construct: Bought recombinant protein

| Binder | Kd |
| --- | --- |
| B1 | 9.96 nM |
| B2 | 7.31 nM |
| B3 | 9.44 nM |
| B4 | 13.3 nM |
| B5 | 2.7 nM |
| B6 | 7.82 nM |
| B7 | 7.91 nM |
| B8 | 10.2 nM |

Each binder was assayed against T2, recombinant human Claudin 18.2 protein … (assay: indirect ELISA, plate coated with recombinant human Claudin 18.2, anti-human IgG Fc-HRP detection).

| Binder | EC50 |
| --- | --- |
| B1 | 0.125 nM |
| B2 | 0.074 nM |
| B3 | 0.111 nM |
| B4 | 0.119 nM |
| B5 | 0.139 nM |
| B6 | 0.0914 nM |
| B7 | 0.0788 nM |
| B8 | 0.0746 nM |

These binders were tested against T2, recombinant human Claudin 18.2 protein … (assay: competition ELISA on coated recombinant human Claudin 18.2; competitor biotinylated IMAB362 (0.72 µg/ml)).

| Binder | IC50 |
| --- | --- |
| B1 | 0.323 nM |
| B2 | 0.265 nM |
| B3 | 0.337 nM |
| B4 | 0.491 nM |
| B5 | 0.805 nM |
| B6 | 0.276 nM |
| B7 | 0.271 nM |
| B8 | 0.319 nM |
